Series [1] concerns the molecule itself. Nature of the series: SEC; purified monomers refolded at 4 °C in 50 mM Tris pH 8.5, 1 M NaCl, 5 mM EDTA, 2% CHAPS, 2 mM reduced and 1 mM oxidized glutathione; after reverse phase chromatography the dimer was isolated on a HiLoad Superdex 75 column.
In series [2] the target is T1, BMP-7 (human, UniProt P18075 293-431).
T1 construct: Non-glycosylated (made in E. coli); also called BMP-7 monomer; BMP-7 chain of TG-BMP-2/BMP-7
T1 sequence (looked up): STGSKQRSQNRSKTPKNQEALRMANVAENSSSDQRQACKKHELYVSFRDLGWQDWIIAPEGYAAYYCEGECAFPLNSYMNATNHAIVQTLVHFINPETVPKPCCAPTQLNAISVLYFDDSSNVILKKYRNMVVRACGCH
The experiment in a line: non-reduced Western blot with two-colour infrared detection; TG-BMP-2 and BMP-7 monomers combined in equimolar amounts and refolded together, heterodimer purified by heparin affinity, size exclusion and reverse phase chromatography; non-reduced blot probed with anti-BMP-2/4 (700 nm) and anti-BMP-7 (800 nm); overlapping bands indicate the heterodimer. Conditions: both partners purified.

B1: TG-BMP-2 (ligand, human)
chain: MNQEQVSPLPVELPLIKMKPHQAKHKQRKRLKSSCKRHPLYVDFSDVGWNDWIVAPPGYHAFYCHGECPFPLADHLNSTNHAIVQTLVNSVNSKIPKACCVPTELSAISMLYLDENEKVVLKNYQDMVVEGCGCR
notes: One chain is written; also called engineered BMP-2; TG-BMP-2 monomer
Take B1: the binding result in series [1] and in series [2] was “binds” each time.

B2: BMP-2 (ligand, human, UniProt P12643 283-396, looked up)
chain: QAKHKQRKRLKSSCKRHPLYVDFSDVGWNDWIVAPPGYHAFYCHGECPFPLADHLNSTNHAIVQTLVNSVNSKIPKACCVPTELSAISMLYLDENEKVVLKNYQDMVVEGCGCR
notes: bone morphogenetic protein 2 (BMP-2), human, active BMP-2 protein only; also called BMP-2 homodimer; regular BMP-2 without the TG site
On to B2, for which the binding result in series [1] is “binds”.

Values taken from publication PMC5455435, “Fibrin Hydrogel Based Bone Substitute Tethered with BMP-2 and BMP-2/7 Heterodimers” (Materials, 2015).
